Source: publication PMC4666614, “Identification of New Regions in HIV-1 gp120 Variable 2 and 3 Loops that Bind to α4β7 Integrin Receptor” (PLoS ONE, 2015)

Test system: α4β7 integrin binding to MAdCAM-1
Experiment: Competitive inhibition of binding of α4β7 on RPMI8866 cells to MAdCAM-1 by peptides, viruses, IMCs and controls
Type: cell-based, human
Details: for % Inhibition ± SD of α4β7 integrin binding to MAdCAM-1: average of 3–7 experiments in triplicate
Experimental: 96-well plates were coated with MAdCAM-1 as described above. RPMI8866 cells (2 X 10^6/ ml) were incubated with cyclic V2 or V3 MN, TH023, or acute subtype C (C-6980v0c22) peptides or with scrambled flanking region (SFL) or the mid region (SMR) TH023 V2 or with a completely scrambled (SCR) TH023 peptide (10 μg/ml) for 45 minutes at 37°C before being added in triplicate to the MAdCAM-1 coated plates for 1 hour at 37°C. In concurrent experiments, RMI8866 cells were incubated with purified primary HIV-1 (0.75 ng to 6 ng/well p24) subtype B (SF162, US-1, JRFL), subtype CRF01_AE viruses (92TH023), IMCs (0.75 ng to 1000 ng/well p24 in each case) containing acute or chronic envelopes (Acute CRF01_AE (703357) [GenBank:JN944658], C (C-6980v0c22) [GenBank:HM215344], A(851891); Chronic CRF01_AE (CM235.2) [AF259954.1], C (ET02220LucR) [U46016]) or with pSG3Δenv. pSG3Δenv contained a four-nucleotide insertion mutation (CTAG) in Env, leading to a translation stop codon after amino acid residue 142. The pSG3Δenv clone is routinely used for generating Env pseudotyped infectious virions.
Viruses were tested in triplicate in two independent experiments. In additional experiments, mannose, HIV-1 p24, and ovalbumin (0.2–10 μg/ml) were used in the competition assay as nonspecific protein controls (data in Table 2; 3–7 experiments performed in triplicate), whereas, an anti-RSV mAb, Synagis® was used as a nonspecific antibody control. Synagis® was incubated for 45 minutes with either MAdCAM-1 or with RPMI8866 cells and then placed in the assay system. The remainder of the assay was similar to that described above. Significance was determined by paired Student’s t test.

B1: Ovalbumin: nonspecific protein control (protein)
chain: MGSIGAASMEFCFDVFKELKVHHANENIFYCPIAIMSALAMVYLGAKDSTRTQINKVVRFDKLPGFGDSIEAQCGTSVNVHSSLRDILNQITKPNDVYSFSLASRLYAEERYPILPEYLQCVKELYRGGLEPINFQTAADQARELINSWVESQTNGIIRNVLQPSSVDSQTAMVLVNAIVFKGLWEKAFKDEDTQAMPFRVTEQESKPVQMMYQIGLFRVASMASEKMKILELPFASGTMSMLVLLPDEVSGLEQLESIINFEKLTEWTSSNVMEERKIKVYLPRMKMEEKYNLTSVLMAMGITDVFSSSANLSGISSAESLKISQAVHAAHAEINEAGREVVGSAEAGVDAASVSEEFRADHPFLFCIKHIATNAVLFFGRCVSP
- % Inhibition ± SD of α4β7 integrin binding to MAdCAM-1 (0.2 μg/ml): 7.2 ± 12.5%
- % Inhibition ± SD of α4β7 integrin binding to MAdCAM-1 (1.0 μg/ml): 2.0 ± 3.5%
- % Inhibition ± SD of α4β7 integrin binding to MAdCAM-1 (5 μg/ml): 13.6 ± 11.8%
- % Inhibition of α4β7 integrin binding to MAdCAM-1 (10 μg/ml, average of triplicate determinations from a single experiment): 18%
- Inhibition of α4β7 integrin binding to MAdCAM-1 by nonspecific controls (in words) (0.2–10 μg/ml): no significant inhibition
